# Data reported in PMC3044691.
# Where two headings read alike, the source gives them in different places.
# Columns and labels:
# [1] = target: integrin α4β7, P13612;P26010; test: steady-state binding assay on primary α4β7+/CD4+ T-cells (flow cytometry, MFI); details: read off a plot
# [2] = target: integrin α4β7 (human (endogenous in primary CD4+ T cells)) (UniProt P13612); test: flow cytometry on cells; α4β7-reactivity: biotinylated gp120 on retinoic acid-cultured primary CD4+ T cells with CD4 masked by unlabeled mAb Leu3A (α4 mAb HP2/1 as specificity control); HBS with 100 µM CaCl2 and 1 mM MnCl2, on ice; Neutravidin PE; MFI of the CD45RO+/CCR5+ gate; steady state
# [3] = target: integrin α4β7 (human (endogenous in primary CD4+ T cells)) (UniProt P13612); test: as above; remark: listed apart in the source
# [4] = first point, plotted at x = 0 µg gp120, parent: est. 20
substance,measurement,setting,value
92Ug037 w.t. gp120 (subtype A) N133Q,response,[1]; parent: est. 27,72 MFI
92Ug037 w.t. gp120 (subtype A) N137Q,response,[1]; parent: est. 27,160 MFI
92Ug037 w.t. gp120 (subtype A) N187Q; N188Q,response,[1]; parent: est. 27,540 MFI
92Ug037N144Q gp120 (natural protein),fold increase in α4β7-reactivity over w.t. 92Ug037,[2],20 fold
92Ug037N355Q gp120 (natural protein),fold increase in α4β7-reactivity over w.t. 92Ug037,[2],27 fold
92Ug037N385Q gp120 (natural protein),fold increase in α4β7-reactivity over w.t. 92Ug037,[2],8 fold
93MW959 w.t. gp120 (subtype C) N139Q,response,[1]; parent: est. 300,500 MFI
93MW959 w.t. gp120 (subtype C) N145Q,response,[1]; parent: est. 300,550 MFI
AN1 N204Q gp120,fold increase in α4β7-reactivity over AN1 w.t. expressed in CHO-S cells,[2],23 fold
AN1 NN140/143QQ gp120,fold increase in α4β7-reactivity over AN1 w.t. expressed in CHO-S cells,[2],25 fold
"AN1 NN140/143QQ,N204Q gp120",fold increase in α4β7-reactivity over AN1 w.t. expressed in CHO-S cells,[2],96 fold
AN1 w.t. gp120 expressed in CHO lec1 cells,fold α4β7-reactivity over CHO S AN1 w.t. gp120,[3],> 100 fold
same,fold α4β7-reactivity over CHO S AN1 w.t. gp120,[2],100 fold
QA203M41 chimeric gp120 (V1/V2 of QA203M41 in a Q23 backbone) N22Q; N25Q,response,[1]; [4],300 MFI
same,response,"[1]; gp120 0.5 µg, parent: est. 20",270 MFI
same,response,"[1]; gp120 1 µg, parent: est. 25",580 MFI
same,response,"[1]; gp120 1 µg, parent: est. 45",600 MFI
same,response,"[1]; gp120 2 µg, parent: est. 30",1400 MFI
same,response,"[1]; gp120 2 µg, parent: est. 110",1300 MFI
same,response,"[1]; gp120 4 µg, parent: est. 50",1700 MFI
same,response,"[1]; gp120 4 µg, parent: est. 230",2000 MFI
QA203M41 chimeric gp120 (V1/V2 of QA203M41 in a Q23 backbone) N22Q; N25Q; N66Q; N67Q,response,[1]; [4],200 MFI
same,response,"[1]; gp120 1 µg, parent: est. 25",410 MFI
same,response,"[1]; gp120 2 µg, parent: est. 30",750 MFI
same,response,"[1]; gp120 4 µg, parent: est. 50",1300 MFI
QA203M41 chimeric gp120 (V1/V2 of QA203M41 in a Q23 backbone) N66Q; N67Q,response,[1]; [4],50 MFI
same,response,"[1]; gp120 2 µg, parent: est. 30",180 MFI
same,response,"[1]; gp120 4 µg, parent: est. 50",280 MFI
Z205F.ENV1.1 0Mfounder gp120 (natural protein),fold bound to α4β7 over bound to CD4,[2],37 fold
same,fold α4β7-reactivity over the 0-month escape gp120,[2],8 fold
same,fold α4β7-reactivity over the 8- and 38-month escape gp120s,[2],> 17 fold
